The values that follow come from publication PMC7318626.

The assay concerns the target Neonatal Fc receptor (FcRn), soluble form (UniProt P55899). Nature of the assay: mass photometry (single-molecule counting of species by mass). To be noted: not stated (in the SI).

Some results are limits rather than exact numbers.

Chain of UniProt P55899 (P55899 whole entry): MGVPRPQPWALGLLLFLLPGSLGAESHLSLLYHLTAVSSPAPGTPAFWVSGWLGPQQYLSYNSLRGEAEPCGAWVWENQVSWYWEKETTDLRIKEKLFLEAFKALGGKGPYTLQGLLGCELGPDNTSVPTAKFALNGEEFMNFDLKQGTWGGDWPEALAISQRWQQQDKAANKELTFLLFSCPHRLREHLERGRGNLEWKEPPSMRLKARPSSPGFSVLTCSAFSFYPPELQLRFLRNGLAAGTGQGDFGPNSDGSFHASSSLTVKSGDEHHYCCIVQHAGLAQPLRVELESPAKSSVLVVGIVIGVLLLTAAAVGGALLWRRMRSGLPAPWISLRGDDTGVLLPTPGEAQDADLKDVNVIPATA

In the case of “Neonatal Fc receptor (FcRn), soluble form”, the equilibrium dissociation constant (Kd) was 0.044 ± 0.009 µM (pH 5, pH 5, 5.5, 6 and 7); 0.031 ± 0.011 µM (pH 5, pH 5, 5.5 and 6); 0.171 ± 0.019 µM (pH 5.5, pH 5, 5.5, 6 and 7); more than 0.2 µM (pH 5.5, pH 5, 5.5 and 6); more than 0.2 µM (pH 6, pH 5, 5.5 and 6).
For “Trastuzumab (Herceptin), IgG1 monoclonal antibody, called 'IgG' in the article”, the Kd runs as follows: (pH 5, pH 5, 5.5, 6 and 7) 0.059 ± 0.008 µM; (pH 5.5, pH 5, 5.5, 6 and 7) 0.225 ± 0.02 µM; (pH 6, pH 5, 5.5, 6 and 7) more than 0.2 µM; (pH 7, pH 5, 5.5, 6 and 7) more than 0.2 µM.
“Trastuzumab (Herceptin), IgG1 monoclonal antibody, called 'IgG' in the article + Neonatal Fc receptor (FcRn), soluble form”: the Kd is, setting by setting: (pH 5, pH 5, 5.5, 6 and 7) 0.0066 ± 0.0006 µM; (pH 5.5, pH 5, 5.5, 6 and 7) 0.0039 ± 0.0015 µM.

By Kd is commonly meant the free concentration of one partner at which half of the binding sites on the other are occupied at equilibrium, for simple one-to-one binding. Low values mean higher affinity, high ones lower affinity.
